Biological target: catalytic α subunit of the cAMP-dependent protein kinase A, Cushing's syndrome mutant L205R (PKA-C^L205R) (human)
Assay: ITC

VPS36-derived peptide (vacuolar protein-sorting–associated protein 36, residues 115 to 130)
Kd: 3.5 µM
